Source: patent US20040116675A1 (published 2004)

Experiments:
[1] = molecular target: T1, CD28 on P815/CD28+ cells (P815 mouse mastocytoma stably transfected with CD28) (human, UniProt P10747 19-220); assay: competition against ^125I-labeled MuTN228 on P815/CD28+ cells, reference MuTN228
T1 construct: whole, on cells; also called CD28 antigen; CD28 molecules on P815/CD28^+ cells

[2] = molecular target: T2, sCD28-Fc (extracellular domains of CD28 combined with the CH2 and CH3 domains of IgG1) (human, UniProt P10747 19-152); assay: ELISA competition on coated sCD28-Fc against MuTN228-biotin, Expt 1
T2 construct: extracellular domain; not shown: CH2 and CH3 domains of IgG1

[3] = molecular target: T1, CD28 on P815/CD28+ cells (P815 mouse …); assay: competition against ^125I-labeled MuTN228 on P815/CD28+ cells, Expt 3
[4] = molecular target: T1, CD28 on P815/CD28+ cells (P815 mouse …); assay: competition against ^125I-labeled MuTN228 on P815/CD28+ cells, Expt 1
[5] = molecular target: T2, sCD28-Fc (extracellular domains of CD28 …); assay: ELISA competition on coated sCD28-Fc against MuTN228-biotin, Expt 2
[6] = molecular target: T1, CD28 on P815/CD28+ cells (P815 mouse …); assay: competition against ^125I-labeled MuTN228 on P815/CD28+ cells, average of 3 experiments (St. Dev. 0.26)
[7] = molecular target: T2, sCD28-Fc (extracellular domains of CD28 …); assay: ELISA competition on coated sCD28-Fc against MuTN228-biotin, average of 3 experiments (Std. Dev. 0.14)
[8] = molecular target: T2, sCD28-Fc (extracellular domains of CD28 …); assay: ELISA competition on coated sCD28-Fc against MuTN228-biotin, reference MuTN228
[9] = molecular target: T1, CD28 on P815/CD28+ cells (P815 mouse …); assay: competition against ^125I-labeled MuTN228 on P815/CD28+ cells, Expt 2

fold less apparent binding affinity than MuTN228 [1]: ~2.4 fold
IC50 [2]: 0.37 µg/mL
IC50 [3]: 2.13 nM
IC50 [4]: 2.65 nM
IC50 [5]: 0.64 µg/mL
IC50 [6]: 2.4 nM
IC50 [7]: 0.5 µg/mL
fold less relative binding than MuTN228 [8]: 2.6 fold
IC50 [9]: 2.43 nM
B1: HuTN228 (humanized TN228-IgG2M3) (antibody, V domains shown)
VH: QVQLQESGPGLVKPSETLSLTCAVSGFSLTSYGVHWIRQPPGKGLEWLGVIWPGGGTNFNSALMSRLTISEDTSKNQVSLKLSSVTAADTAVYYCARDRAYGNYLYAMDYWGQGTLVTVSS
VL: DIQMTQSPSSLSASVGDRVTITCRASESVEYYVTSLMQWYQQKPGKAPKLLIYAASNVDSGVPSRFSGSGSGTDFTLTISSLQPEDIATYYCQQSRKVPFTFGGGTKVEIK
